Measured values published in article PMC11392913.

Molecular target: H. pylori PflB_(Δ140), the periplasmic α-helical domain of paralyzed flagellum protein B (Helicobacter pylori (strain SS1))
Assay: SEC; Superdex 200 10/300 GL, 20 mM Tris-HCl pH 8.0, 150 mM NaCl, 10% glycerol, 4 CMC LDAO; mass from a calibration with globular standards

Q: For “H. pylori PflB_(Δ140), the periplasmic α-helical domain of paralyzed flagellum protein B (domain or fragment)”, which stoichiometry N is on record?
A: > 4
